Measured values published in publication PMC4571865, “Structural Basis for Antigen Recognition by Transglutaminase 2-specific Autoantibodies in Celiac Disease*” (The Journal of Biological Chemistry, 2015).
Each block holds one binder with its values, some of them ahead of it.

Experiments:
Settings in all cases: both partners purified
[1] = biological target: T1, transglutaminase 2, wild type (UniProt P21980); experiment: SPR; BIAcore 3000; anti-TG2 antibodies amine-coupled to CM5 chips (700-2300 RU); WT or mutant TG2 injected in HBS-EP (0.01 M HEPES, 0.15 M NaCl, 2 mM EDTA, 0.05% P20, pH 7.4), 40 ul/min, 25 °C; relative binding at 500 nM, kinetics from serial dilutions (15.6/156-500/5000 nM); 1:1 Langmuir model; reference cell with a non-TG2 reactive antibody
T1 construct: transglutaminase 2 (TG2); For the complex, native PAGE and SAXS the protein was incubated with 1 mM GDP (closed conformation); SASBDB SASDA28, SASDA38 and SASDA48 hold the SAXS data of TG2-GDP, the Fab and the complex; also called TG2; WT TG2
T1 sequence (P21980 whole entry): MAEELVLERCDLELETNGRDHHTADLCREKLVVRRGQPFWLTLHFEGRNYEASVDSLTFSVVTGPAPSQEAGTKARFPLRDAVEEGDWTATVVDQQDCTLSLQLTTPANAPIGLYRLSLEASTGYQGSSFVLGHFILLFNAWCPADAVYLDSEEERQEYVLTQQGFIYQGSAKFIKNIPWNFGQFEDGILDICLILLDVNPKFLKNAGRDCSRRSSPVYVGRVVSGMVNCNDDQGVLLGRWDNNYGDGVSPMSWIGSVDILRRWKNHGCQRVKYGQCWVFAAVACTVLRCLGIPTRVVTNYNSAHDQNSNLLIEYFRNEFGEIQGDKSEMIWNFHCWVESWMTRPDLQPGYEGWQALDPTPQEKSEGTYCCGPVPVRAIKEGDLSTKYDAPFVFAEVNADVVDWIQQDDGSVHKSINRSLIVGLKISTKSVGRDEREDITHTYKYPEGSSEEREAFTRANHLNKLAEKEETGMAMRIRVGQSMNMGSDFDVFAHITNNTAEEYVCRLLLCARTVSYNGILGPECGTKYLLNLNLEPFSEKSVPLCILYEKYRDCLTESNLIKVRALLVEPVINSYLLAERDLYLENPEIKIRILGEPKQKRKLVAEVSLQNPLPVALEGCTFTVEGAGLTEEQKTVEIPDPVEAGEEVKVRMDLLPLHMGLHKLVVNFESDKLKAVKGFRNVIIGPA

[2] = biological target: T2, transglutaminase 2 mutant R19S (Homo sapiens (assumed; human TG2 …, UniProt P21980, R19S); experiment: as above
T2 construct: transglutaminase 2 (TG2); also called TG2 R19S
T2 sequence (P21980 whole entry R19S): as the sequence (P21980 whole entry) above, with R19S counted along it

[3] = biological target: T3, transglutaminase 2 mutant K30A (Homo sapiens (assumed; human TG2 …, UniProt P21980, K30A); experiment: as above
T3 construct: transglutaminase 2 (TG2); also called TG2 K30A
T3 sequence (P21980 whole entry K30A): as the sequence (P21980 whole entry) above, with K30A counted along it

[4] = biological target: T4, transglutaminase 2 mutant R116A (Homo sapiens (assumed; human TG2 …, UniProt P21980, R116A); experiment: as above
T4 construct: transglutaminase 2 (TG2); also called TG2 R116A
T4 sequence (P21980 whole entry R116A): as the sequence (P21980 whole entry) above, with R116A counted along it

[5] = biological target: T1, transglutaminase 2, wild type; experiment: SAXS; complex of TG2-GDP and 679-14-E06 Fab in solution, data at 9 mg/ml; molecular weight estimates and ab initio models; beamline P12, PETRA III

Kd [1]: 55.5 nM | koff [1]: 0.00474 s⁻¹ | kon [1]: 85300 M⁻¹ s⁻¹ | Kd [2]: 147 nM | koff [2]: 0.00525 s⁻¹ | kon [2]: 35800 M⁻¹ s⁻¹ | Kd [3]: 49.9 nM | koff [3]: 0.00353 s⁻¹ | kon [3]: 70800 M⁻¹ s⁻¹ | Kd [4]: 240 nM | koff [4]: 0.00736 s⁻¹ | kon [4]: 30600 M⁻¹ s⁻¹
B1: anti-TG2 antibody 679-14-E06 (human IgG1) (antibody, V domains shown)
VH: EVQLVQSGAEVKKPGESLKISCKGSGYSFTSYWIGWVRQMPGKGLEWMGIIYPGDSDTRYSPSFQGQVTISADKSISTAYLQWSSLKASDTAMYYCARPHYYDSLDAFDIWGQGTMVTVSS
VL: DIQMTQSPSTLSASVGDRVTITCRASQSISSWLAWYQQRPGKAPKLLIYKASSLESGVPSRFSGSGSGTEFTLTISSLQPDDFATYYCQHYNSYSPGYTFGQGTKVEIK
notes: constant region of human IgG1; IgG1; derived from a single gut IgA plasma cell of a celiac disease patient; Residues 142-149, 198-207, 225-231 of the heavy chain and 172-175, 228-234 of the light chain lack electron density in PDB 4ZD3 (IMGT numbering); source: HEK 293F cells, co-transfected heavy and light chain plasmids; purified from culture supernatant (protein G column)

stoichiometry N [5]: 1
B2: Fab fragment of antibody 679-14-E06 (Fab, V domains shown)
VH: B1 VH
VL: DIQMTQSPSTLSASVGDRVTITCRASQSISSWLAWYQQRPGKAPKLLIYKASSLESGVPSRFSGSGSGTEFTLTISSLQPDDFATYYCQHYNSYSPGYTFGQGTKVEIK
notes: Electron density is missing for residues 142-149, 198-207, 225-231 of the heavy chain and 172-175, 228-234 of the light chain in PDB 4ZD3 (IMGT numbering); also called the Fab fragment; source: HEK 293F cells, co-transfected heavy and light chain plasmids; purified from culture supernatant (protein L column)
